The record followed here is US20240287194A1, “Targeting Extracellular Matrix Proteins to Regulate NK Cell Function in Peripheral Tissues” (The General Hospital Corporation, priority 2021, published 2024).

What all share (assay type): cell-based, mice
For test [1], the system named is Ly49H^+ splenic cNK cells. The test can be described thus: Splenic cNK cell co-culture with m157-MEF in the presence of ECM proteins (CD107a, IFNγ flow cytometry). The settings on record: for Ly49H+ cNK cell degranulation (CD107a): 9 and 24 hours co-culture with m157-MEF, ECM coated 20 μg/cm2. As to the method:
(§1) Single-cell suspensions from all samples were prepared by straining through a 70 μm filter. 2.4G2 supernatant treated cells were stained in 1×PBS/2% FCS/5 mM EDTA with the appropriate surface antibodies (Table 2) for 30 minutes at 4° C., washed and analyzed by flow cytometry. For intracellular staining, cells were fixed and permeabilized using True-Nuclear Transcription Buffer set (Biolegend, catalog no. 424401) according to the manufacturer's protocol then incubated with appropriate antibodies (Table 2) for 60 min at RT, washed and analyzed by flow cytometry. For in vitro signaling experiments, following the specified time points, cells were fixed with an equal volume of pre-warmed 1×aldehyde based fixation buffer (Biolegend, catalog no. 420801) for 20 min at RT. Fixed cells were permeabilized by drop-wise addition of chilled methanol-based solution True-Phos Perm Buffer (Biolegend, catalog no. 425401) while mixed on a vortex. Cells were stored in-20° C. and dark for 1-3 days before washing them two times with ˜3 mL of 1×PBS/2% FCS/5 mM EDTA. Cells were subsequently stained with appropriate antibodies against surface markers and specific phosphorylated signaling proteins (Table 2) for 60 min at RT, washed and analyzed by flow cytometry. Cells were assayed on a BD LSRFortessa X-20 flow cytometer (BD Bioscience, Billerica, MA, USA) and data were analyzed using FlowJo software Version 10 (Tree Star, Ashlad, OR, USA). NK cells in WT non-reporting mice were identified as CD3^− NK1.1^+NKp46^+.
(§2) For in vitro experiments in the presence of ECM components, Collagen I (Rat tail, Sigma, catalog no. 08-115), collagen III (Human placenta, Sigma, catalog no. C4407), collagen IV (Mouse, Sigma, catalog no. C0543), Elastin (Mouse lung, Sigma, catalog no. E6402), Laminin (Mouse, Thermo Fisher, catalog no. 23017015) and Fibronectin (Rat plasma, Sigma, catalog no. F0635) were diluted in 1×PBS and coated at 20 μ ENREF 45 g/cm^2 in a 24 well tissue culture plate for 30 minutes at RT with gentle shaking followed by overnight at 4° C. Spleens from Ncr1^iCre, ROSA^mT-mG, WT or Lair1^−/− mice were harvested as described above. Then, 5×10^6 splenocytes resuspended in RPMI 10% FBS/1% P/S/20 mM Glutamine were mixed with 20 μg of respective ECM protein per well and were incubated at RT for 10 minutes. Splenocytes and ECM mix were plated onto the ECM-coated well and were incubated at 37° C./5% CO2 for 2 hours (short ECM exposure) or 17 hours (long ECM exposure). At the end of the incubation, 1×10^5 MEF (WT or m157) cells were added to each well to obtain a 50:1 splenocyte:MEF ratio. For cell signaling experiments, hydrogen peroxide (H2O2) at a final concentration of 2.5 mM or 1×10^5 MEF-m157 cells were added to each well except in “0 min” wells which were unstimulated and fixed immediately. Splenocytes were stimulated with 2.5 mM H2O2 for 2 min and 5 min or were co-cultured with MEF-m157 for 30 min and 60 min (signaling) or 7 hours (CD107a and IFN[…]) at 37° C./5% CO2. Splenocytes and MEF in co-culture were supplemented with mIL-12 (10 ng/mL, Biolegend, catalog no. 577002), mIL-15 (1 ng/mL, Shenandoah Biotechnology, catalog no. 200-07) and hIL-2 (Biolegend, catalog no. 589104; only long ECM exposure) as well as for CD107a/IFN experiments. 1 μL of anti-CD107a-BV421 (1D4B, Biolegend, catalog no. 121618), 1×Brefeldin A (Biolegend, catalog no. 420601) and 1×Monensin (Biolegend, catalog no. 420701) were added. Following the co-culture, cells were washed with 1×PBS/2% FCS/5 mM EDTA and the pellet was resuspended in 2.4G2 blocking solution before flow cytometry staining.
Background: A flow cytometer gives signals particle by particle.

Test [2] concerns splenic cNK cells. As to the kind of experiment: Phospho-signaling in splenic cNK cells stimulated with H2O2 in the presence of ECM proteins. The note with it: baseline and 2- and 5-minute exposure to H2O2. As to the method:
as §1, §2

For test [3], the system named is splenic cNK cells. As to the kind of experiment: LEGENDplex chemokine release by splenic NK cells co-cultured with m157-MEF on ECM proteins. The settings on record: for CCL5 release by splenic cNK cells / CXCL10 release by splenic cNK cells: 12 hours. As for the experimental part: NK cells purified from spleens under sterile conditions were used for LEGENDplex experiments. Spleens from 8-9-week-old C57BL/6 female WT mice were harvested and mashed through a 70 μm filter. Cells were resuspended in RBC lysis for two minutes and washed with 1×PBS/2% FCS/5 mM EDTA. NK cells were enriched by negative selection using an NK cell isolation kit (Milteny Biotec, catalog no. 130-115-818) and magnetic LS columns (Milteny Biotec, catalog no. 130-042-401) according to the manufacturer's instructions. Enrichment of isolated NK cells was confirmed by flow cytometry and was 88-90% CD3^−NK1.1^+NKp46^+ cells. Enriched NK cells were resuspended in RPMI 1640 media supplemented with 10% FBS and 1% P/S.
ECM protein coating on wells was performed as previously described. 1×10^5 enriched splenic NK cells was mixed with 20 μg of respective ECM protein per well in RPMI 1640/10% FBS/1% P/S/20 mM Glutamine and incubated at RT for 10 minutes. NK cells and ECM mix were plated onto the ECM-coated well and were incubated at 37° C./5% CO2 for 2 hours. At the end of the incubation, 1×10^5 MEF (WT or m157) cells were added to the respective wells to obtain a 1:1 NK:MEF ratio. NK cells and MEF were co-cultured at 37° C. 5% CO2 for 24 hours supplemented with mIL-12 (10 ng/mL, Biolegend, catalog no. 577002) and mIL-15 (1 ng/ml, Shenandoah Biotechnology, catalog no. 200-07-100 μg). The supernatant was collected at 12- and 24-hour intervals, centrifuged to remove cells/cell debris and subsequently frozen at −80° C. until further use. Quantification of murine cytokines and chemokines (CCL2, CCL5, CXCL9, CXCL10) in supernatants was performed with LEGENDplex kits (Biolegend, catalog nos. 740451, 740622) according to manufacturer's instructions. In brief, a mix of capture beads with distinct size and fluorescence was incubated with undiluted S/N or standard dilutions for 2 hours at RT with constant shaking. Beads were washed, a biotinylated detection antibody was added and the plate was incubated for 1 hour at RT with constant shaking. The streptavidin-PE conjugate was added and further incubated for 30 minutes at RT on a shaker. Beads were washed and subsequently acquired on a BD LSRFortessa X-20 flow cytometer. Analysis and quantification of the results were done using LEGENDplex data analysis software (BioLegend). Quantification was reported as pg/ml for CCL2, CCL5, CXCL10 and as MFI for CXCL9.

Test [4] concerns splenic cNK cells. As to the kind of experiment: Phospho-signaling in splenic cNK cells co-cultured with m157-MEF in the presence of ECM proteins. As for the experimental part: as §1, with “Cells were stored in-20° C. and dark for 1-3 days before washing them two times with ˜3 mL of 1×PBS/2% FCS/5 mM EDTA.” left out, “NK cells in WT non-reporting mice were identified as CD3^− NK1.1^+NKp46^+.” left out

Consider “collagen I: Collagen I (Rat tail, Sigma), dermal ECM protein”, for which the “Ly49H+ cNK cell degranulation (CD107a)” value in test [1] is “potently blocked”. Moreover, in test [1] (exposed to m157-MEF, 9 and 24 hours), the “IFNγ production by Ly49H+ cNK cells” value was “suppressed”. In the test on splenic cNK cells [2], the “pNFκB in NK cells” value is recorded as “suppressive effect” and the “pSTAT3 in NK cells” value is reported as “suppressive effect”. In addition, in the test on splenic cNK cells [3], the “CCL5 release by splenic cNK cells” value is “suppressed” and the “CXCL10 release by splenic cNK cells” value is recorded as “significantly induced”. Moreover, in the test with splenic cNK cells [3] (24 hours), the “CCL2 release by splenic cNK cells” value is “significantly induced”.

B1: collagen III: collagen III (Human placenta, Sigma), dermal ECM protein (protein, UniProt P02461 154-1221, looked up)
Collagen alpha-1(III) chain: QYDSYDVKSGVAVGGLAGYPGPAGPPGPPGPPGTSGHPGSPGSPGYQGPPGEPGQAGPSGPPGPPGAIGPSGPAGKDGESGRPGRPGERGLPGPPGIKGPAGIPGFPGMKGHRGFDGRNGEKGETGAPGLKGENGLPGENGAPGPMGPRGAPGERGRPGLPGAAGARGNDGARGSDGQPGPPGPPGTAGFPGSPGAKGEVGPAGSPGSNGAPGQRGEPGPQGHAGAQGPPGPPGINGSPGGKGEMGPAGIPGAPGLMGARGPPGPAGANGAPGLRGGAGEPGKNGAKGEPGPRGERGEAGIPGVPGAKGEDGKDGSPGEPGANGLPGAAGERGAPGFRGPAGPNGIPGEKGPAGERGAPGPAGPRGAAGEPGRDGVPGGPGMRGMPGSPGGPGSDGKPGPPGSQGESGRPGPPGPSGPRGQPGVMGFPGPKGNDGAPGKNGERGGPGGPGPQGPPGKNGETGPQGPPGPTGPGGDKGDTGPPGPQGLQGLPGTGGPPGENGKPGEPGPKGDAGAPGAPGGKGDAGAPGERGPPGLAGAPGLRGGAGPPGPEGGKGAAGPPGPPGAAGTPGLQGMPGERGGLGSPGPKGDKGEPGGPGADGVPGKDGPRGPTGPIGPPGPAGQPGDKGEGGAPGLPGIAGPRGSPGERGETGPPGPAGFPGAPGQNGEPGGKGERGAPGEKGEGGPPGVAGPPGGSGPAGPPGPQGVKGERGSPGGPGAAGFPGARGLPGPPGSNGNPGPPGPSGSPGKDGPPGPAGNTGAPGSPGVSGPKGDAGQPGEKGSPGAQGPPGAPGPLGIAGITGARGLAGPPGMPGPRGSPGPQGVKGESGKPGANGLSGERGPPGPQGLPGLAGTAGEPGRDGNPGSDGLPGRDGSPGGKGDRGENGSPGAPGAPGHPGPPGPVGPAGKSGDRGESGPAGPAGAPGPAGSRGAPGPQGPRGDKGETGERGAAGIKGHRGFPGNPGAPGSPGPAGQQGAIGSPGPAGPRGPVGPSGPPGKDGTSGHPGPIGPPGPRGNRGERGSEGSPGHPGQPGPPGPPGAPGPCCGGVGAAAIAGIGGEKAGGFAPYYG
In the case of B1, the “Ly49H+ cNK cell degranulation (CD107a)” value in test [1] is given as “potently blocked”. In addition, the “pNFκB in NK cells” value in the test on splenic cNK cells [2] is reported as “increased”. Moreover, the “phospho-NFκB (p65) in splenic cNK cells” value in the test with splenic cNK cells [4] (after 30- and 60-minutes exposure to m157-MEF) is “highly amplified”. Besides, the “phospho-NFκB (p65) in splenic cNK cells” value in the test on splenic cNK cells [4] (at baseline) was “significantly induced”. Further, in the test with splenic cNK cells [3], the “CCL5 release by splenic cNK cells” value was “suppressed” and the “CXCL10 release by splenic cNK cells” value is listed as “significantly induced”. For the same molecule, in the test on splenic cNK cells [3] (24 hours), the “CCL2 release by splenic cNK cells” value is listed as “significantly induced” and the “CXCL9 release by cNK cells” value is given as “induced”.
